Experimental data published in PMC3569449.

What was measured:
[1] = target: N-terminal cytoplasmic domain of the a1 isoform of subunit a of human V-ATPase (residues 1-353) (human) (UniProt Q93050); assay: SPR; Biacore T100; C1, H or a1NT amine-coupled to CM5; 20 mM HEPES-NaOH, 300 mM NaCl, 1 mM DTT, 0.05% P20, pH 7.5, 10°C; KD from steady-state Req against analyte concentration, 1:1 Langmuir isotherm
[2] = target: Human V-ATPase subunit H (non-tagged) (human) (UniProt Q9UI12); assay: as above
[3] = target: Human V-ATPase subunit C1 (human) (UniProt P21283); assay: SPR; C1 immobilised on CM5; response at 10 µM analyte (E1G1, a1NT, or both together)
Sequence of Human V-ATPase subunit C1 (human) (P21283 whole entry): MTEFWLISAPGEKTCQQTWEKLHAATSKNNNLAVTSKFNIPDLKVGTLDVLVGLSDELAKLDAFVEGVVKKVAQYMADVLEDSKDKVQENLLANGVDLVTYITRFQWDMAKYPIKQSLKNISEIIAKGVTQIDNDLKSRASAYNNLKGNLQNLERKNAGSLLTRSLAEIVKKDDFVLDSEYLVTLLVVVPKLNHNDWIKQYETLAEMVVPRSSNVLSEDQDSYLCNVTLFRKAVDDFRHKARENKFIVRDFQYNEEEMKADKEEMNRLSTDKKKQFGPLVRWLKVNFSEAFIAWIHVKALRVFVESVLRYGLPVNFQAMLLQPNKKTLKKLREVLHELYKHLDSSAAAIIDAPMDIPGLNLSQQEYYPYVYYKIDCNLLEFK

[4] = target: Human V-ATPase subunit C1 (human) (UniProt P21283); assay: SPR; Biacore T100; C1, H or a1NT amine-coupled to CM5; 20 mM HEPES-NaOH, 300 mM NaCl, 1 mM DTT, 0.05% P20, pH 7.5, 10°C; KD from steady-state Req against analyte concentration, 1:1 Langmuir isotherm
[5] = target: V-ATPase a NT (Saccharomyces cerevisiae) (UniProt P32563); assay: ITC; settings: cited from earlier work
Sequence of V-ATPase a NT (Saccharomyces cerevisiae) (P32563 104-372): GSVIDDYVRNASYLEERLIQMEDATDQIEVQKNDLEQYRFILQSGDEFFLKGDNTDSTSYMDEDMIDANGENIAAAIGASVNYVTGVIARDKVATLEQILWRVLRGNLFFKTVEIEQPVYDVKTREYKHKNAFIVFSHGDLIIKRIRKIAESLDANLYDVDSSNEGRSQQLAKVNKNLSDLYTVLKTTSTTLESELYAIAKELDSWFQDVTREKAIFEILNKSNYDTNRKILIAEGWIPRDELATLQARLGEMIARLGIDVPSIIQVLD

Sequence of Human V-ATPase subunit H (non-tagged) (human) (Q9UI12 whole entry): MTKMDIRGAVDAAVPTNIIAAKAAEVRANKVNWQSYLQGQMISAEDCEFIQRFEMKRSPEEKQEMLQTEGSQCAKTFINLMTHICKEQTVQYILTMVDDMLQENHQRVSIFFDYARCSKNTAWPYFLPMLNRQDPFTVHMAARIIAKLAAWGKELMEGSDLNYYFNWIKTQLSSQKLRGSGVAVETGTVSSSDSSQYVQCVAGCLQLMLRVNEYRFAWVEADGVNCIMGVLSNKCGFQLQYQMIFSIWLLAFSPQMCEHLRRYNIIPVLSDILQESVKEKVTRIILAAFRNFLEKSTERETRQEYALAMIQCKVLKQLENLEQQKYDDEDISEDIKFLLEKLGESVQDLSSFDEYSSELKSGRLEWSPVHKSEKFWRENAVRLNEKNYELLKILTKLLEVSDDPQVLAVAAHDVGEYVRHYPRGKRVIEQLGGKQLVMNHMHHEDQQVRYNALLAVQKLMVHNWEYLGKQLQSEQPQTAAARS
Sequence of V-ATPase C foot (P31412 2-157): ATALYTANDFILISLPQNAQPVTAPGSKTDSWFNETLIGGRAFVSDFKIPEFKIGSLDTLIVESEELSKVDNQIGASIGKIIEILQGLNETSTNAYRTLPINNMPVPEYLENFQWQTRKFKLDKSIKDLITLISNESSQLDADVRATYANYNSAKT
Sequence of V-ATPase C foot (P31412 278-392): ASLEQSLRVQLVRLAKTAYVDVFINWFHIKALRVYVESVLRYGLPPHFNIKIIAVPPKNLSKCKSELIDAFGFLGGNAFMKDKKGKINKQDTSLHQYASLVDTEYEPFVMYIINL
Sequence of N-terminal cytoplasmic domain of the a1 isoform of subunit a of human V-ATPase (residues 1-353) (human) (Q93050 1-353): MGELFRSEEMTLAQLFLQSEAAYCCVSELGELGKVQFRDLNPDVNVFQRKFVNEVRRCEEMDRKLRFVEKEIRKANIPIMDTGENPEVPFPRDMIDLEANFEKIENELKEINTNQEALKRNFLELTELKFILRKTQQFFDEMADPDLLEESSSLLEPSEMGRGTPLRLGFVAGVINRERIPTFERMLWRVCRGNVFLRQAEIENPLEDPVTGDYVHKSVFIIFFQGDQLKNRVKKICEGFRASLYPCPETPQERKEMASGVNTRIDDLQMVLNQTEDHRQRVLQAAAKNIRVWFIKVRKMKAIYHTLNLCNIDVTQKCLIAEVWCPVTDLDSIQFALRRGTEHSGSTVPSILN
Sequence of V-ATPase EG (P22203 2-233): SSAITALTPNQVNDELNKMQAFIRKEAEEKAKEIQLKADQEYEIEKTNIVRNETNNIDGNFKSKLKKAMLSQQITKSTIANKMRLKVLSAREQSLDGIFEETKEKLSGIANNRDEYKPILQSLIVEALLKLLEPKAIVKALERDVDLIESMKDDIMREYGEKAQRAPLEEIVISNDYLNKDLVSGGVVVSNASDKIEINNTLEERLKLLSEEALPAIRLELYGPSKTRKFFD
Sequence of V-ATPase EG (P48836 2-114, further chain): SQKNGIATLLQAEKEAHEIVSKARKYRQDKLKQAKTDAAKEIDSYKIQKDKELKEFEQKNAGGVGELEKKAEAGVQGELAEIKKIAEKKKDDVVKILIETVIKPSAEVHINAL

Substance | Kd [2] | Kd [5] | also measured
E1G1 heterodimer of human V-ATPase (subunits E1 and G1, co-expressed and co-purified) (from UniProt P36543 1-226; O75348 1-118) (complex) |  |  | Kd [1]: 210 nM
Human V-ATPase subunit C1 (from UniProt P21283 1-382) (natural protein) | 1400 nM |  | 
N-terminal cytoplasmic domain of the a1 isoform of subunit a of human V-ATPase (residues 1-353) (from UniProt Q93050 1-353) (domain or fragment) | 360 nM |  | response at 10 µM analyte [3]: 45 RU; Kd [4]: 3000 nM
V-ATPase C foot (from UniProt P31412) |  | 22000 nM | 
V-ATPase EG (from UniProt P22203) |  | 33000 nM | 
